Results: patent publication US11419948B2, “Functionalized microgels with fibrin binding elements” (Georgia Tech Research Corporation, priority 2013, dated 2022)

T1: fibrinogen (Homo sapiens, UniProt P02671+P02675+P02679)
T1 sequence (P02671 20-629 limits assumed): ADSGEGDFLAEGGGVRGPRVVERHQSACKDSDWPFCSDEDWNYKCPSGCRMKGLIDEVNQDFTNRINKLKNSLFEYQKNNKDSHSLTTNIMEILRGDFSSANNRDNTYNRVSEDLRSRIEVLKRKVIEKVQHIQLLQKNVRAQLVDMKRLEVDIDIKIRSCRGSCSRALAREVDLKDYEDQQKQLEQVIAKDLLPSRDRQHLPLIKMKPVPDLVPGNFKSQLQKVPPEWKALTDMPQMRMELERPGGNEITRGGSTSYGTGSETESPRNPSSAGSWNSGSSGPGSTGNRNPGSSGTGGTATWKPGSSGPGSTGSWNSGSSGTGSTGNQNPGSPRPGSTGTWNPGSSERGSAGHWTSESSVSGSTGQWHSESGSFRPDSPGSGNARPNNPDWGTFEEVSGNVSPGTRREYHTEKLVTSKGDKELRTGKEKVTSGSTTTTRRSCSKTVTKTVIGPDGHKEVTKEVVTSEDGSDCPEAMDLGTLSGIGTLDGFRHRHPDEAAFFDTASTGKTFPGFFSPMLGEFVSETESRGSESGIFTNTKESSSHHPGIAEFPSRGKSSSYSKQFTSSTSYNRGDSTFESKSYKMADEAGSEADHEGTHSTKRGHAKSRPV
T1 sequence (P02675 31-491): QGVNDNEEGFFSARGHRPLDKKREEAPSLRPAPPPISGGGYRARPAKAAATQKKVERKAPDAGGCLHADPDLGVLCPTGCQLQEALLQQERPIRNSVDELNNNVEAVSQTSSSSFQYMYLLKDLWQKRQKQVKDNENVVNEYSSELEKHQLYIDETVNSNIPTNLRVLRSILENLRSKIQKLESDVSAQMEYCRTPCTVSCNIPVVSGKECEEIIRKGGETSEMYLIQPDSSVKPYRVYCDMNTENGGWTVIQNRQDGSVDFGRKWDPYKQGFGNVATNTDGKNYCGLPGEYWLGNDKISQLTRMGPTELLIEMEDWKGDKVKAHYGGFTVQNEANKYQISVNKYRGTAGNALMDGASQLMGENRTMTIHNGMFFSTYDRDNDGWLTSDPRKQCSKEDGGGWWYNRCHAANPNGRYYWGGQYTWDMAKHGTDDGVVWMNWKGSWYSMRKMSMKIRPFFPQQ
T1 sequence (P02679 27-453): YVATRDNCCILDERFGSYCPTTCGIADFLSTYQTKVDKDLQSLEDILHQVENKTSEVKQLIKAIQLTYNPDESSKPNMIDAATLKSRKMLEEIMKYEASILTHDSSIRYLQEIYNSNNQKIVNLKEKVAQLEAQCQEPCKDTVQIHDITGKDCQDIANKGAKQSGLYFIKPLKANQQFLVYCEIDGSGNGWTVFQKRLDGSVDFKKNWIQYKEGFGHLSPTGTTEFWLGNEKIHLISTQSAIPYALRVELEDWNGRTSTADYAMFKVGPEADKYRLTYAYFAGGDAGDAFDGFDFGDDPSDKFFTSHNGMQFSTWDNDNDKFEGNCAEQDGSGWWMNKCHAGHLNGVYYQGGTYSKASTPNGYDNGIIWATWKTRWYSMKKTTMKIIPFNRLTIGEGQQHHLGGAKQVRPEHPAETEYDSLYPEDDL

B1: PLPs: ultra-low crosslinked pNIPAm-AAc microgels conjugated to fibrin-specific sdFv H6 (conjugate)
VH: QVQLLESGGGLVQPGGSLRLSCAASGDRFTHNDMGWVRQAPGKGLEWVSTIPTTDGSTYYADSVKGRFTISRDNSKSTLYLQMNSLRAEDTAVYYCATGYMWKAPAYVKYWGQGTLVTVSSAAAEQKLISEEDLNSAAHYTDIG
B2: H6: fibrin-specific human sdFv clone from phage biopanning, SEQ ID NO: 1 (protein)
VHH: QVQLLESGGGLVQPGGSLRLSCAASGDRFTHNDMGWVRQAPGKGLEWVSTIPTTDGSTYYADSVKGRFTISRDNSKSTLYLQMNSLRAEDTAVYYCATGYMWKAPAYVKYWGQGTLVTVSSAAAEQKLISEEDLNSAAHYTDIG

What was measured:
femoral vein injury = experiment: Rat femoral vessel traumatic injury model; assay type: in vivo
Description: To test the efficacy of PLPs in hemostasis, a well-established rat femoral vessel traumatic injury model was used^13-15. This model results in an easily visualized, continuous stream of blood flowing from the injury site. All protocols were approved by the Georgia Institute of Technology IACUC. Adult Sprague-Dawley male rats (200-250 g) were anesthetized with 5% isoflurane. Following anesthesia, an incision was made on the right hindlimb to expose the femoral vessels. A portion of the femoral vein was isolated from the surrounding connective tissue by placing a small piece of foil between the vessel and the underlying tissue. Following isolation of the vessel, the cavity will be irrigated with 0.9% irrigation fluid at 37° C. Animals were then administered 500 μL of saline (vehicle), purified human factor VIIa ([…], 100 μg/kg the current standard of care, purchased from Innovative Research), PLPs (20 mg/mL) or S11-ULC microgels (20 mg/mL) via tail vein injection using a 24 gauge catheter. Six (6) animals were tested per condition. Following a 5 minute circulation time, injury was induced to the right femoral vein by piercing the vein with a 22 gauge needle. A gauze was lightly placed below the injury site to collect blood, allowing for better visualization of the injury site as well as measurement of total blood loss. Gauze were changed every ten seconds for the first 30 seconds following injury and then every 30 s until bleeding ceased. Bleeding time was defined as the time required for bleeding to cease for a minimum of 10 s. Following cessation of bleeding, animals were euthanized with carbon dioxide. Following cessation of bleeding, animals were euthanized and organs separated, fixed with 10% formalin, paraffin embedded and 5 μm sections were produced using a Microm […] Microtome (Thermo Scientific). Co-localization of PLPs were characterized through immunofluorescence staining for the MYC-tag encoded on the sdFvs and through Martius Scarlet Blue (MSB) staining for fibrin in adjacent serial sections. For MYC-tag staining, samples were counter stained with Hoescht (Invitrogen) to visualize nuclei. All statistical analyses for bleeding time studies were performed with Prism software program (GraphPad, San Diego Calif.). Bleeding and blood weight data were statistically analyzed using repeated measures analysis of variance using the Tukey test at a 95% confidence interval.

fibrinogen = target: T1, fibrinogen; experiment: Clottability assay (protein incorporation into clot); assay type: biochemical; settings: all H6 concentrations tested
Protocol: The clottability assay involved clotting purified fibrinogen or fibrinogen in the presence of H6 or S11, subsequently removing the gelled clot from solution, and measuring the amount of protein that was not incorporated into the clot. The same molar ratios of H6 and S11 to fibrinogen were investigated as per the turbidity assay. Soluble protein concentrations were measured using standard Quant-It assay protocols, and results were normalized to unpolymerized fibrinogen or fibrinogen-nanobody solutions of identical protein composition.

Molecule	total blood loss (femoral vein injury; compared to S11-ULC microgels, p<0.05)	fibrin staining in vessels (femoral vein injury; postmortem)	localization at wound (MYC-tag staining, MSB fibrin staining) (femoral vein injury; postmortem wound tissue)	blood loss over time (bleeding dynamics) (femoral vein injury; rat)	bleeding time compared to vehicle only (femoral vein injury; rat, tail vein injection)	Bleeding time (femoral vein injury; rat, tail vein injection, 5 minute circulation time) [s]	protein incorporation (clottability) (fibrinogen)
B1	significantly less	higher levels of fibrin staining	co-localization of PLPs with fibrin clots	slowest blood loss over time	significantly decreased	117 ± 16	
B2							greater than 80%
